Assay results from publication PMC11850899 (Communications Biology, 2025).
Residue numbers refer to the chain shown, from its start. Names and notes keep the numbering of the source. Where two headings read alike, the source gives them in different places.

B1: Bacillus subtilis DSR2 (defense-associated sirtuin 2), wild type (enzyme)
chain: MVKVDLESKRYGEKLKEVFLMLDNNVVECIKEITESSRNGKLVFFVGAGVSTLSDYPQWWRLVDKYHEELYGSPKKGNYSSDEYLRIPQIFYNVKGEMAFDGILKDFFQVDKPTNPIHDKILAMNPAHVITTNYDNLIDTACWKRGKYFSVISAEEDVANATSSRYLLKVHGDFRKGFKGENVVLKEDDYLNYDQNYPLISNLMKTIIATHTIVFIGYGLGDYNINMLLNWVRKLQKDSFHKPFFIRTDPSPIENETLIYYENKGLRIIDAASLIDSNEYDYLERYSAVMDLLIESQENKFITKDDEVIDYIYGKISPLFALQYIRKIDLKHVFEYDYHFEVNGTVVRHKNKGFGYMERFFELKESCDERSKLSKKQYERFNALFNFFEKNGVICMAKDAGTLNTSIEINSLAYHGKYDVMKKFIEEQSVSIEDDYKKAFFLACLGRWEESYDLYSNIILNSIDESNGCVYYLSQINRYRIYQSITQAVTQFNGLGLLTFGRHYKPFTDEFLARIEREMTNFNIDDLFNGMPFEFQKKYKILEFLSDNQFLYDDTVKLFELTNKVRSEMSEGSYSFGMSSDIVVLLRLYDNLRFLYENCLWSVSFHEFHQYIRNSMSLLIEKAEYERTRDIDELGFSFFGKKSGFFMEYYDFVNISRHFKIDDIKNLERSCSIDKIRFGEQEKIEEYLVGIAEEITKQFSANGMNVVFYTQFISEAKAALYFAKYVKLSEEGLGKIVKALLFYFPERDLDIGKRYVWLERLTKCNELPKSIISIIDDFLVLQAEKHIDQNYSEVSSNGLYSRDYGALIKHFEKNFISKRLSEITLCLTQDKQKQIDFLFKLLPLLSTNAKSHLLSFKSVENINDLMNGIRIGLIDEFTPEHEELIIEYLETRKVNYIVEKEKGIQTFSSNDYMSTFGIWYFLEEINNSKMEEFIGMDDQYDFFVDPENFDYKKFIPSWLKNYNDKLLGKIAGNKHMKHHVIEVLKERVKNSNDKRYLEILMNYFI
B2: Bacillus subtilis DSR2 H171A (catalytic mutant) (enzyme, UniProt P0DXN8 1-1005, looked up)
chain: B1 chain with H171A

Columns and labels:
cryo-EM structure [1] = molecular target: the molecule itself; assay: cryo-EM structure
cryo-EM structure [2] = molecular target: the molecule itself; assay: cryo-EM structure; remark: listed apart in the source

Protein | stoichiometry N (cryo-EM structure [1]) | stoichiometry N (cryo-EM structure [2])
B1 | 4 | 
B2 |  | 4
